Test results reported in patent US6861257B1, “Methods for isolation of osteoclast precursor cells and inducing their differentiation into osteoclasts” (Shionogi & Co., Ltd., priority 1998, dated 2005).
“Also recorded” adds a separate entry of the source.

Tests used:
preosteoclasts [1] = test: Induction of differentiation of preosteoclasts (from joint fluid of rheumatoid arthritis patients) into osteoclasts in the absence of accessory cells; type: cell-based; details: cytokine in place of human T-STIM in the medium, 37° C., 48-96 hours, no accessory cells
Procedure: The obtained cellular fraction was cultured in DMEM medium (Gibco BRL, #12430-21 or equivalent) supplemented with 10% (v/v) of fetal calf serum (FCS) in 5-7% CO2-containing air at 37° C. for several weeks. […]
Human T-STIM contains a variety of cytokines. In order to identify the cytokine which stimulates differentiation of preosteoclasts into osteoclasts, the differentiation was examined by modifycation the contents of Medium A described as previously in Example 1(3).
The following 16 kinds of medium (B-R) were prepared by using the cytokines shown below, alone or a mixture thereof, instead of human T-STIM contained in Medium A (Example 1(3)). […] Recombinant baculovirus containing the sequence was prepared to infect insect cells, then the recombinant eotaxin-3 protein was purified from the culture supernatant.)
The preosteoclasts obtained by Example 1(2) were cultured in the Medium […] described above at 37° C. for 48-96 hours.

preosteoclasts [2] = details: differentiation requiring the presence of accessory cells; cited from earlier work

With “IL-6: recombinant human IL-6 (R & D Systems)” as the molecule, how does the “ability for inducing the differentiation of preosteoclasts” value (“ability for inducing the differentiation” for short) (preosteoclasts [1]) read?
Its value is “do not have an ability for inducing the differentiation of preosteoclasts; also recorded: does not effect to the differentiation”.

And the “induction of the differentiation of preosteoclasts into osteoclasts” value (preosteoclasts [2])?
Its value is “induce the differentiation of preosteoclasts into osteoclasts”.

With “GM-CSF: recombinant human GM-CSF (R & D Systems)” as the molecule, how does the “ability for inducing the differentiation” value (preosteoclasts [1]) read?
Its value is “have an ability for inducing the differentiation of preosteoclasts”.

For “eotaxin: recombinant human eotaxin (R & D Systems)”, which “ability for inducing the differentiation” value (preosteoclasts [1]) is on record?
The value was “have an ability for inducing the differentiation of preosteoclasts”.

B1: eotaxin-3: human CC type chemokine, amino acid sequence SEQ ID No.:2; recombinant protein from baculovirus-infected insect cells (protein, listed as Homo sapiens)
chain: MMGLSLASAVLLASLLSLHLGTATRGSDISKTCCFQYSHKPLPWTWVRSYEFTSNSCSQRAVIFTTKRGKKVCTHPRKKWVQKYISLLKTPKQL
Which “ability for inducing the differentiation” value (preosteoclasts [1]) does the source give for B1 here?
The value was “have an ability for inducing the differentiation of preosteoclasts”.

B2: IL-11: recombinant human IL-11 (R & D Systems) (protein, UniProt P20809 22-199, looked up)
Interleukin-11: PGPPPGPPRVSPDPRAELDSTVLLTRSLLADTRQLAAQLRDKFPADGDHNLDSLPTLAMSAGALGALQLPGVLTRLRADLLSYLRHVQWLRRAGGSSLKTLEPELGTLQARLDRLLRRLQLLMSRLALPQPPPDPPAPPLAPPSSAWGGIRAAHAILGGLHLTLDWAVRGLLLLKTRL
For B2, which “ability for inducing the differentiation” value (preosteoclasts [1]) is on record?
Its value is “do not have an ability for inducing the differentiation of preosteoclasts; also recorded: does not effect to the differentiation”.

And the “induction of the differentiation of preosteoclasts into osteoclasts” value (preosteoclasts [2])?
Its value is “induce the differentiation of preosteoclasts into osteoclasts”.

B3: IL-4: recombinant human IL-4 (Genzyme) (protein, UniProt P05112 25-153, looked up)
Interleukin-4: HKCDITLQEIIKTLNSLTEQKTLCTELTVTDIFAASKNTTEKETFCRAATVLRQFYSHHEKDTRCLGATAQQFHRHKQLIRFLKRLDRNLWGLAGLNSCPVKEANQSTLENFLERLKTIMREKYSKCSS
For B3, which “ability for inducing the differentiation” value (preosteoclasts [1]) is on record?
Its value is “do not have an ability for inducing the differentiation of preosteoclasts”.

B4: M-CSF: recombinant human M-CSF (R & D Systems) (protein, UniProt P09603 33-554, looked up)
Macrophage colony-stimulating …: EEVSEYCSHMIGSGHLQSLQRLIDSQMETSCQITFEFVDQEQLKDPVCYLKKAFLLVQDIMEDTMRFRDNTPNAIAIVQLQELSLRLKSCFTKDYEEHDKACVRTFYETPLQLLEKVKNVFNETKNLLDKDWNIFSKNCNNSFAECSSQDVVTKPDCNCLYPKAIPSSDPASVSPHQPLAPSMAPVAGLTWEDSEGTEGSSLLPGEQPLHTVDPGSAKQRPPRSTCQSFEPPETPVVKDSTIGGSPQPRPSVGAFNPGMEDILDSAMGTNWVPEEASGEASEIPVPQGTELSPSRPGGGSMQTEPARPSNFLSASSPLPASAKGQQPADVTGTALPRVGPVRPTGQDWNHTPQKTDHPSALLRDPPEPGSPRISSLRPQGLSNPSTLSAQPQLSRSHSSGSVLPLGELEGRRSTRDRRSPAEPEGGPASEGAARPLPRFNSVPLTDTGHERQSEGSFSPQLQESVFHLLVPSVILVLLAVGGLLFYRWRRRSHQEPQRADSPLEQPEGSPLTQDDRQVELPV
For B4, which “ability for inducing the differentiation” value (preosteoclasts [1]) is on record?
Its value is “do not have an ability for inducing the differentiation of preosteoclasts; also recorded: does not effect to the differentiation”.

And the “induction of the differentiation of preosteoclasts into osteoclasts” value (preosteoclasts [2])?
Its value is “induce the differentiation of preosteoclasts into osteoclasts”.

B5: IL-7: recombinant human IL-7 (Genzyme) (protein, UniProt P13232 26-177, looked up)
Interleukin-7: DCDIEGKDGKQYESVLMVSIDQLLDSMKEIGSNCLNNEFNFFKRHICDANKEGMFLFRAARKLRQFLKMNSTGDFDLHLLKVSEGTTILLNCTGQVKGRKPAALGEAQPTKSLEENKSLKEQKKLNDLCFLKRLLQEIKTCWNKILMGTKEH
For B5, which “ability for inducing the differentiation” value (preosteoclasts [1]) is on record?
Its value is “have an ability for inducing the differentiation of preosteoclasts”.

B6: eotaxin-2: recombinant human eotaxin-2 (R & D Systems) (protein, UniProt O00175 27-119, looked up)
C-C motif chemokine 24: VVIPSPCCMFFVSKRIPENRVVSYQLSSRSTCLKAGVIFTTKKGQQFCGDPKQEWVQRYMKNLDAKQKKASPRARAVAVKGPVQRYPGNQTTC
Which “ability for inducing the differentiation” value (preosteoclasts [1]) does the source give for B6 here?
Its value is “have an ability for inducing the differentiation of preosteoclasts”.
